Measured values: US12397037B2, “Methods and compositions for immunomodulation” (CHILDREN'S MEDICAL CENTER CORPORATION, priority 2014, dated 2025)

Experiments:
Type in all cases: cell-based, human
PI-3K = assay: PI3-Kinase Activity ELISA
Procedure: FIG. 28A depicts U87MG cells untreated (control) or following treatment with SEMA3F (640 ng/ml) for 30 minutes. Cell lysates were evaluated by phosphoprotein kinase antibody array. FIG. 28B depicts results of the array validated by Western blot analysis. FIG. 28C depicts U87MG cells treated with SEMA3F (640 ng/ml) as a time course up to 60 minutes and were analyzed by Western blot. FIGS. 28B-28C are representative of 3 independent experiments. FIG. 28D depicts U87MG, Jurkat and HUVEC cells treated with SEMA3F (200, 600, 1800 ng/ml, bars from left to right) for 15 minutes (grey bars) or 30 minutes (black bars); as a positive control, HUVEC were treated with VEGF-A (25 ng/ml) for 15 and 30 minutes. In addition, HUVEC were pre-treated with SEMA3F (1800 ng/ml) or PBS as a control for 30 minutes and subsequently VEGF-A (25 ng/ml) was added to the culture for 15 and 30 minutes. PI-3K activity was analyzed by ELISA according to the manufacturer's instructions. Data represent the mean±SD of 3 experiments.
SEMA3F inhibits Akt, mTOR, and S6K phosphorylation. To determine the effect of SEMA3F on intracellular signaling responses, levels of phosphokinases in the NRP2-expressing human glioblastoma cell line U87MG were profiled.
The VEGF-A (DVE00) ELISA kit was obtained from R&D Systems (Minneapolis, MN). […]

HUVEC = assay: Western blot of pAkt in HUVEC after PTEN siRNA knockdown; conditions: PTEN siRNA 20 nM, SEMA3F 1800 ng/ml
Procedure: FIG. 36A depicts a western blot. HUVEC were treated with SEMA3F (1800 ng/ml) for 30 minutes and were subjected to immunoprecipitation and Western blot analyses with anti-NRP2 and -PTEN as illustrated. FIG. 36B depicts a western blot. HUVEC were transfected with control-, or Plexin A1-specific siRNAs (20 nM), prior to SEMA3F treatment (1800 ng/ml); lysates were subjected to immunoprecipitation and Western blot analyses with anti-NRP2 and anti-PTEN as illustrated. FIG. 36C depicts a western blot. HUVEC were transfected with control-, or PTEN-specific siRNAs (20 nM), prior to SEMA3F treatment (1800 ng/ml); lysates were analyzed by Western blot. FIG. 36D depicts a western blot. U87MG cells were transfected with control or GIPC1-specific siRNA (20 nM). After 48 hours, cells were treated with SEMA3F (200, 600, 1800 ng/ml, from left to right) for 30 minutes, and were analyzed by Western blot. FIG. 36E depicts a western blot. U87MG cells were treated with U0126 (10 μM) for 30 minutes prior to combination with 30 minutes and 60 minutes of SEMA3F (640 ng/ml). Akt and MAPK signaling was analyzed by Western blot. All data presented are representative of 3 independent experiments.
It is thus likely that SEMA3F inactivates mTORC2 via upstream inhibition of PI-3K. […]

VEGF = VEGF protein in conditioned media by ELISA, U87MG cells; conditions: SEMA3F, rapamycin 10 nM or Torin 1 10 nM, 30 minutes prior to DFO, supernatants after 18 hours
Procedure: In each panel data are representative of 3 independent experiments. Bar graphs represent the mean±SD of n=3 experiments performed in triplicate, *, p<0.01 vs. control.
Finally, the effect of SEMA3F on the secretion of VEGF into conditioned media (by ELISA) was determined in the absence or presence of DFO.
The VEGF-A (DVE00) ELISA kit was obtained from R&D Systems (Minneapolis, MN). […] Desferrioxamine (DFO) was purchased from Sigma-Aldrich, and the MEK inhibitor (U0126) was purchased from EMD-Millipore (Billerica, MA). pGL4.74 [hRluc/TK] vector (Promega Madison, WI) was used as an internal control in luciferase assay.

B1: SEMA3F: Human recombinant full-length His-Myc-tagged SEMA3F, secreted by transfected 293T cells and purified; class 3 semaphorin, NRP-2 ligand (protein, listed as Homo sapiens)
chain: MLVAGLLLWASLLTGAWPSFPTQDHLPATPRVRLSFKELKATGTAHFFNFLLNTTDYRILLKDEDHDRMYVGSKDYVLSLDLHDINREPLIIHWAASPQRIEECVLSGKDVNGECGNFVRLIQPWNRTHLYVCGTGAYNPMCTYVNRGRRAQATPWTQTQAVRGRGSRATDGALRPMPTAPRQDYIFYLEPERLESGKGKCPYDPKLDTASALINEELYAGVYIDFMGTDAAIFRTLGKQTAMRTDQYNSRWLNDPSFIHAELIPDSAERNDDKLYFFFRERSAEAPQSPAVYARIGRICLNDDGGHCCLVNKWSTFLKARLVCSVPGEDGIETHFDELQDVFVQQTQDVRNPVIYAVFTSSGSVFRGSAVCVYSMADIRMVFNGPFAHKEGPNYQWMPFSGKMPYPRPGTCPGGTFTPSMKSTKDYPDEVINFMRSHPLMYQAVYPLQRRPLVVRTGAPYRLTTIAVDQVDAADGRYEVLFLGTDRGTVQKVIVLPKDDQELEELMLEEVEVFKDPAPVKTMTISSKRQQLYVASAVGVTHLSLHRCQAYGAACADCCLARDPYCAWDGQACSRYTASSKRRSRRQDVRHGNPIRQCRGFNSNANKNAVESVQYGVAGSAAFLECQPRSPQATVKWLFQRDPGDRRREIRAEDRFLRTEQGLLLRALQLSDRGLYSCTATENNFKHVVTRVQLHVLGRDAVHAALFPPLSMSAPPPPGAGPPTPPYQELAQLLAQPEVGLIHQYCQGYWRHVPPSPREAPGAPRSPEPQDQKKPRNRRHHPPDT
modifications: His-Myc tag
notes: Human recombinant full-length His-Myc-tagged SEMA3F, secreted by transfected 293T cells and purified; class 3 semaphorin, NRP-2 ligand
- PI-3K activity (PI-3K; U87MG, Jurkat and HUVEC, SEMA3F 200, 600, 1800 ng/ml, 15 or 30 minutes): inhibited PI-3K activity
- VEGF-induced PI-3K activation (PI-3K; endothelial cells (HUVEC) pre-treated with SEMA3F 1800 ng/ml for 30 minutes, then VEGF-A 25 ng/ml): inhibited subsequent VEGF-induced PI-3K activation
- pAkt expression following siRNA knockdown of PTEN (HUVEC): failed to inhibit pAkt expression
- DFO-induced VEGF protein secretion (VEGF): significantly reduced
